Source: patent US20230027592A1

Biological target: Bovine serum albumin (bovine) (UniProt P02769)

Substance | BSA sequence coverage after digestion (nLC-MS/MS) (% BSA sequence coverage)
Trypsin/LysC protease mix (Mass Spectrometry Grade, Promega V5072) (pool or library) | 91.3
GluC protease (Mass Spectrometry Grade, Promega V1651) (from UniProt P0C1U8) (enzyme) | 93.1
